Measured values as given in patent US20050079613A1, “Downregulation of cell surface glycoproteins by a family of human ubiquitin ligases” (Oregon Health & Science University, priority 2002, published 2005).

Legend:
HLA class I (MHC I) = test: Surface expression of endogenous MHC I on transfected HeLa cells, flow cytometry; type: cell-based, human
Description: Flow cytometry. Cells were removed from tissue culture dishes with 0.05% Trypsin-EDTA (Invitrogen), washed with ice-cold PBS, and incubated with appropriate antibody for 30 minutes at 4° C. The cells were washed with ice-cold PBS and either resuspended in ice-cold PBS or incubated with PE-conjugated anti-mouse secondary antibody (DAKO) and washed again before analysis with a BD Biosciences (San Jose, Calif.) FACScalibur flow cytometer.
The ability to downregulate MHC I is common to KSHV-K3, KSHV-K5, MHV68-K3 and MV-M153R (Coscoy and Ganem, 2000, supra; Guerin et al., 2002, supra; Ishido et al., 2000b supra; Stevenson et al., 2000, supra). Additional substrates are ICAM-1 and B7.2 (but not B7.1) for KSHV-K5, as well as CD95 and CD4 for M153R (Coscoy and Ganem, 2001, supra; Guerin et al., 2002, supra; Ishido et al., 2000a, supra; Mansouri et al., 2003, supra). Since only low copy numbers were detected in HeLa cells for transcripts corresponding to each of the MARCH-proteins (FIG. 7C, and data not shown), HeLa cells were transfected with expression plasmids for MARCH-I, II, III, IV, V and VIII. Surface expression of selected glycoproteins was monitored upon transfection. The following known substrates for viral K3-family members were tested: Fas (CD95) and HLA class I (MHC I), both of which are endogenously expressed in HeLa cells, as well as transfected HLA-A2.1 or CD4. […] Surface expression of the respective markers was analyzed by flow cytometry. GFP was used to identify transfected cells.
With regards to whether MHC I downregulation by MARCH-IV was only observed at very high expression levels, since the viral immune evasion genes seem to be dedicated to MHC I downregulation, MHC I expression was compared at different expression levels of MARCH-IV or KSHV-K5 by taking advantage of the tetracycline-regulatable system to partially express either protein (Gossen, M. and H. Bujard, Proc. Natl. Acad. Sci. USA 89:5547-5551, 1992). Tet-off HeLa cells were transfected with either MARCH-IV or with KSHV-K5 in the presence of increasing amounts of tetracycline to shut off transcription. […]

MHC I = MHC I uptake assay in HeLa cells; type: cell-based, human; conditions: transfected HeLa cells, 37° C. for 120 minutes
Description: Uptake Assay. Uptake of MHC I was measured as previously described (Ishido et al., 2000b, supra). In short, HeLa cells were transfected with MARCH-IV. Twenty four hours post-transfection cells were washed and an anti-MHC I antibody allowed to bind at 4° C. Cells were then either fixed immediately or transferred to 37° C. for 120 minutes to allow uptake of antibody bound glycoproteins. Antibody bound to glycoprotein was visualized using an Alexaflour:594-conjugated secondary antibody.
The observed downregulation of MHC I and CD4 by MARCH-IV permitted the study of the molecular mechanism by which MARCH-proteins reduce glycoprotein levels. […] The only known exception is MHV68-K3 which mediates proteasomal degradation of MHC I prior to its exit from the ER (Boname and Stevenson, 2001, supra). To study if MHC I was internalized by MARCH-IV, the recycling of MHC I in MARCH-IV transfected and non-transfected cells over the course of 2 hours was compared. MHC I on MARCH-IV transfected or non-transfected cells was labeled with anti-MHC I antibody at 4° C.

ubiquitin = test: In vitro ubiquitination assay with GST-fused RING-CH (PHD) domains, E1, E2 panel, anti-ubiquitin immunoblot; type: biochemical; conditions: E2 = UbCH2
Description: Ubiquitination assay. UbCH2 and UbCH3 were obtained from Boston Biochem. (His)6-UbCH5a and GST fusion proteins were expressed in BL21-DE3 cells (Stratagene) and BL21 cells (Amersham), respectively, and purified as previously described (Boutell, C., S. Sadis and R. D. Everett, J. Virol. 76:841-850, 2002; Tiwari, S. and A. M. Weissman, J. Biol. Chem. 276:16193-16200, 2001). Purified E3 proteins were stored at 4° C., and E2 proteins were stored at −80° C. In vitro reaction mixtures (20 μl total) included: 50 nM rabbit E1 (Boston Biochem), 28 μM Ubiquitin, 5 mM ATP, 50 mM Tris-HCl pH 7.5, 50 mM NaCl, and 2 mM DTT. E2 enzymes were used at concentrations varying from 0.1 to 2.3 μM, and E3 concentrations ranged from 3 to 30 μM. After 90 minutes of incubation at 30° C., reactions were stopped by boiling in SDS sample buffer. Samples were electrophoresed through 12% polyacrylamide SDS gels and blotted using anti-ubiquitin mouse antibody, P4D1 (Santa Cruz Biotech).
In vitro reaction mixtures (20 μl total) included: 50 nM rabbit E1 (Boston Biochem), 28 μM Ubiquitin, 10 mM ATP, 50 mM Tris-HCl pH 7.5, 50 mM NaCl, and 2 mM DTT. E2 enzymes were used at concentrations varying from 0.7 to 2.3 μM, and E3 concentrations ranged from 3 to 25 μM. After 90 minutes of incubation at 30° C., reactions were stopped by addition of 4×reducing sample buffer. Samples were electrophoresed through 12% SDS gels and blotted using anti-ubiquitin mouse antibody (Santa Cruz Biotech).
To examine if the RING-CH domains of MARCH-I and MARCH-II would act as ubiquitin ligases in vitro, DNA fragments encoding the amino-terminal RING-CH-domain of both proteins were fused to Glutathione-S-transferase. The resulting constructs were sequence confirmed and expression of GST-MARCH protein verified by immunoblot. The GST-fusion protein was expressed and purified from E. coli cultures using Glutathione-columns. The ICP0-RING-domain was also purified, in parallel with the MARCH-I and MARCH-II constructs. A panel of E2 enzymes was either purchased from commercial sources or purified either by nickel-chelate chromatography or on glutathione columns. All E2-enzymes formed mercapto-ethanol-sensisitve complexes with ubiquitin thus showing ubiquitin conjugating activity. Purified ubiquitin and E1 was obtained from commercial sources.
To examine if the RING-CH domains of MARCH proteins act as ubiquitin ligases in vitro, a DNA fragment encoding the amino-terminal RING-CH-domains of MARCH-I, II, IV and VIII were fused to Glutathione-S-transferase (GST) for bacterial expression. The GST-fusion proteins were purified from E. coli cultures using Glutathione-sepharose-columns. Approximately thirty E2 proteins are found in the human genome compared to only one E1 enzyme (Pickart, 2001, supra). […] The specificity and selectivity of E3s with respect to E2s, however, is not well characterized. To cover a spectrum of E2s, a panel of E2 enzymes (Mansouri et al., 2003, supra) was acquired. The various E2 enzymes were incubated with or without the RING-CH-GST fusions in the presence of ubiquitin, ATP, E1. The formation of multiubiquitin-adducts was examined by immunoblotting with antibodies against ubiquitin.

B1: MARCH-IV: human membrane-associated RING-CH ubiquitin ligase, SEQ ID NOS:45 and 57; construct used lacks the first 63 amino-acids (protein)
chain: WYCYGLCAPAPQMLRHQGLLKCRCRMLFNDLKVFLLRRPPQAPLPMHGDPQPPGLAANNTLPALGAGGWAGWRGPREVVGREPPPVPPPPPLPPSSVEDDWGGPATEPPASLLSSASSDDFCKEKTEDRYSLGSSLDSGMRTPLCRICFQGPEQGELLSPCRCDGSVKCTHQPCLIKWISERGCWSCELCYYKYHVIAISTKNPLQWQAISLTVIEKVQVAAAILGSLFLIASISWLIWSTFSPSARWQRQDLLFQICYGMYGFMDVVCIGLIIHEGPSVYRIFKRWQAVNQQWKVLNYDKTKDLEDQKAGGRTNPRTSSSTQANIPSSEEETAGTPAPEQGPAQAAGHPSGPLSHHHCAYTILHILSHLRPHEQRSPPGSSRELVMRVTTV
HLA class I (MHC I); HeLa cells transfected with MARCH plasmid and GFP, 24 h post-transfection
  surface expression of MHC I: significantly downregulated
HLA class I (MHC I); Tet-off HeLa cells, increasing amounts of tetracycline, below the detectable level of RING-CH protein expression
  MHC I downregulation at tetracycline-regulated expression levels: partial MHC I downregulation
MHC I
  internalization (uptake) of antibody-labeled MHC I: rapid internalization
ubiquitin
  ubiquitin ligase activity with UbCH2: mostly active
